Reference: patent US9700619B2, “Combination drug therapy for the treatment of solid tumors” (Duke University, priority 2011, dated 2017)

How the values were obtained:
skin = experiment: Dermapathology evaluation of cutaneous biopsies from study subjects; format: in vivo, human
From the text: Dose escalation was complete with 17 subjects evaluable for DLT toxicity and 16 evaluable for efficacy (see Table 2). […] One non-treatment-related death was due to disease progression. […] Twelve subjects have available efficacy data; 4 subjects have not yet been restaged. Two subjects with refractory NSCLC achieved a complete response. Six additional subjects had stable disease as best response.

[1] = system: patients with advanced solid tumors; experiment: Phase I study of ganitumab plus everolimus: DLT, MTD/RPTD and adverse events (NCI Common Toxicity Criteria version 4.0); format: in vivo; settings: subjects on G+E, summary
Method: The maximum tolerated doses/recommended phase II dose for the doublet combination, ganitumab (G) plus everolimus (E) followed by an expanded cohort was evaluated to better understand the safety and tolerability profile of this drug combination.
The primary objective of this study was to determine the maximum tolerated dose (MTD) and Recommended Phase II Dose (RPTD) of G+E in patients with advanced solid tumors. Secondary objectives were to describe any toxicities associated with this regimen and to preliminarily describe clinical activity (progression-free survival (PFS)), overall survival (OS), partial response (PR), complete response (CR) or stable disease (SD)>6 months.
For dose escalation, eligible patients had advanced solid tumors with adequate organ function and no increased risk for class-related toxicities. G was given intravenously, and E was orally administered; cycle length was 28 days. Stage I was a dose escalation; cohort size: 3-6 patients; Stage II was an expansion at MTD with a cohort size of 20 patients.
An intermediate dose of E at 5 mg five times weekly was added to better maximize dose intensity. Dose limiting toxicity (DLT) was assessed in cycle 1.
AEs were graded according to the NCI Common Toxicity Criteria version 4.0. Efficacy was assessed every 2 cycles with computed tomography (CT) using Response Evaluation Criteria in Solid Tumors (RECIST 1.1) guidelines.

ganitumab
Finding in the third cutaneous biopsy (skin; interpreted as part of the skin toxicity to G): spongiotic dermatitis with mixed inflammatory infiltrate with abundant eosinophils | Cutaneous biopsies revealing hypersensitivity reaction in the form of superficial perivascular dermatitis (skin; mild perivascular lymphocytic infiltrate with eosinophils, subjects on G+E): 2 out of 3 | Skin toxicities [1]: consistent with hypersensitivity to Ganitumab
